Consider two molecules from EP4309676A1 (Emergence Therapeutics AG, dated 2024).

Experiment [1] deals with T1, N-terminal Flag-tagged human Nectin-4 expressed on transfected MDA-MB231 cells (human, UniProt Q96NY8 32-510).
T1 construct: whole, on cells; also called PVRL4; not shown: N-terminal Flag tag
T1 sequence (looked up): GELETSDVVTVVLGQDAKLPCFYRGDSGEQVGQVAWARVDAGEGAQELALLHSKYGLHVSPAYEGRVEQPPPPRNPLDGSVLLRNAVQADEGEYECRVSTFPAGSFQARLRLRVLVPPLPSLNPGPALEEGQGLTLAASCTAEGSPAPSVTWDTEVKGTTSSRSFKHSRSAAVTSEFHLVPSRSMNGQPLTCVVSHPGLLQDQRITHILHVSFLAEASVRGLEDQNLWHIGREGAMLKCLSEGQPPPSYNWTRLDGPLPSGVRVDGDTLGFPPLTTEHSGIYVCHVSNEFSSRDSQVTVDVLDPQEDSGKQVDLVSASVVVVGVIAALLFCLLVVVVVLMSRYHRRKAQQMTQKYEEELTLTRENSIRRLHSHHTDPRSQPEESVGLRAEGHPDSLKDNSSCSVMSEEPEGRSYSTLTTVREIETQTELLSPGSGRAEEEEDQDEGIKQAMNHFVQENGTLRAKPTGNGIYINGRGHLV
Kind of experiment: flow cytometry on MDA-MB231 cells transfected with N-terminal Flag-tagged Nectin-4 (FIG. 1).

Experiment [2] addresses T2, human Nectin-4 on cells (CHO cells transfected with human Nectin-4 cDNA); normal differentiated human … (human, UniProt Q96NY8 32-510).
T2 construct: whole, on cells
T2 sequence (looked up): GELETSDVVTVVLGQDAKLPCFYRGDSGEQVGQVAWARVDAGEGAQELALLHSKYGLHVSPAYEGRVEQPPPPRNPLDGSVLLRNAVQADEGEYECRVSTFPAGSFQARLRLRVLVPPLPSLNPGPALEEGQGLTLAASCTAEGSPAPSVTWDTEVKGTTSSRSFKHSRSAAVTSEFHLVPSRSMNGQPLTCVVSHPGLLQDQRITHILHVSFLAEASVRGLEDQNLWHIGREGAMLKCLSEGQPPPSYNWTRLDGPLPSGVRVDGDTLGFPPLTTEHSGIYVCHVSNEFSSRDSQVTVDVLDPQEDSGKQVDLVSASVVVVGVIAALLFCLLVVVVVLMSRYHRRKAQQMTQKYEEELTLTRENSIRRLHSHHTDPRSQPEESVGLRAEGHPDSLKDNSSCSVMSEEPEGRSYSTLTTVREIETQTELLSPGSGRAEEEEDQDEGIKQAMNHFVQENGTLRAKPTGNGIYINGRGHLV
Kind of experiment: flow cytometry on normal differentiated human keratinocytes (NHEK), 8 pM-33 nM (FIG. 15); reference antibody of the comparison.

For experiment [3], the target named is T3, Nectin-4 IgV-like domain Fc fusion recombinant protein (human, UniProt Q96NY8 32-147, limits assumed).
T3 construct: domain: IgV-like domain; also called Nec4-V; Nectin-4-V-Fc; not shown: Fc part
T3 sequence (looked up): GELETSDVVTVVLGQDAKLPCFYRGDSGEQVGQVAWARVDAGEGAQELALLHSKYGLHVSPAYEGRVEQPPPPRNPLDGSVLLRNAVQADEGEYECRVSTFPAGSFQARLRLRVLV
Briefly: ELISA, plate coated with Nec4-V, peroxidase-conjugated Ch-15A7.5 (FIG. 2).

Experiment [4] deals with T4, Nectin-1 extracellular domain Fc fusion recombinant protein (UniProt Q15223 31-355, limits assumed).
T4 construct: extracellular domain; also called Nec1-VCC; Nectin-1-VCC-Fc; not shown: Fc part
T4 sequence (looked up): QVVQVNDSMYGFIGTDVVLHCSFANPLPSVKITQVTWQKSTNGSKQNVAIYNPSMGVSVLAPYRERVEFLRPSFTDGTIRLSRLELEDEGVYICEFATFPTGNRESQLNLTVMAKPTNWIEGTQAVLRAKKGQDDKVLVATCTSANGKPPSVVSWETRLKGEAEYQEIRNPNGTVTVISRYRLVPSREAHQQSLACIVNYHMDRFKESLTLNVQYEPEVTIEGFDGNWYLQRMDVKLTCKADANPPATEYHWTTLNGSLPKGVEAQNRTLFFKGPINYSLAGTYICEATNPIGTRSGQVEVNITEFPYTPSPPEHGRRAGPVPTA
Briefly: ELISA, plate coated with Nec1-VCC, peroxidase-conjugated Ch-15A7.5 (FIG. 2).

The target in experiment [5] is T5, Nectin-4 extracellular domain Fc fusion recombinant protein (human, UniProt Q96NY8 32-349).
T5 construct: extracellular domain; also called Nec4-VCC; Nectin-4-VCC-Fc; not shown: Fc part
T5 sequence (looked up): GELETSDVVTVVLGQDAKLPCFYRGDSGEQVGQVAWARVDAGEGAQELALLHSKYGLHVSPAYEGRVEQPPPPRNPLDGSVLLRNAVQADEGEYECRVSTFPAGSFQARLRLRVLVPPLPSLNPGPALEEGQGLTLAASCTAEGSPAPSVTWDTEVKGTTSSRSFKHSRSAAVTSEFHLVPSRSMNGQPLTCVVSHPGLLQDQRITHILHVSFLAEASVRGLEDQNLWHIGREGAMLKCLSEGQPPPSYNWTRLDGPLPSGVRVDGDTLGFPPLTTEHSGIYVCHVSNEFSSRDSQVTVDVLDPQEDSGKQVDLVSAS
Kind of experiment: ELISA, plate coated with Nec4-VCC, peroxidase-conjugated Ch-15A7.5 (FIG. 2).

Experiment [6] has as its target T2, human Nectin-4 on cells (CHO cells …). Kind of experiment: flow cytometry on normal differentiated human keratinocytes (NHEK), 8 pM-33 nM (FIG. 15).

B1: Ch-5A12.2 (chimeric form of the anti-Nectin-4 monoclonal antibody 5A12.2) (antibody, V domains shown)
VH: QIQLQQSGAELVKPGASVTLSCKTSGFTFNSMYISWLKQKPGQSLEWIAWIYAGTGGTRFNQKFTGKVQLTVDTSSSTAYMQFSSLTTDDSAIYYCAIRSGFVPMDYWGQGTSVTVSS
VL: SIVMTQTPKFLLVSAGDRVTITCKASQSVSNDVAWYQQKPGQSPKLLIYYASNRYTGVPDRFTGSGYGTDFTFTISTVQAEDLAVYFCQQDYSSPWTFGGGTKLEIK
notes: also called 5A12.2 mAb
Take B1: the binding result in experiment [1] and in experiment [2] was “binds” each time.

B2: Ch-15A7.5 (chimeric form of the anti-Nectin-4 monoclonal antibody 15A7.5) (antibody, V domains shown)
VH: EVKLVESGGGLVQPGGSRKLSCAASGFTFSNYGMAWVRQAPGKGPEWVAFISNLAYGINYADTVTGRFTISRENAKNTLYLEMRSLRSEDTAMYYCARGARATGWFAYWGQGTLVTVSA
VL: DIVMTQSQKFMSTSIGDRVSVTCKASQNVDTHVAWYQEKPGQSPKALIYSASYRYSGVPDRFTGSGSGTDFTLTISNVQSEDLADYFCQQYNSYPLTFGGGTKLEIK
notes: also called 15A7.5 mAb
Consider B2, for which the binding result in experiment [3] is listed as “binds”; in experiment [4], “no binding (tested: 10 nM)”; in experiment [5], “binds”; in experiment [6] it was “binds”; in experiment [1] it was “binds”.
